Our source for the response and percent of parent (% binding / WT) values is paper PMC10696041.

To fix the notation:
B1: MBP-CUB1CUB2 domains of PCPE-2, WT [human] / bone morphogenetic protein-1 [human] (parent)
chain 1: QSPERPVFTCGGILTGESGFIGSEGFPGVYPPNSKCTWKITVPEGKVVVLNFRFIDLESDNLCRYDFVDVYNGHANGQRIGRFCGTFRPGALVSSGNKMMVQMISDANTAGNGFMAMFSAAEPNERGDQYCGGLLDRPSGSFKTPNWPDRDYPAGVTCVWHIVAPKNQLIELKFEKFDVERDNYCRYDYVAVFNGGEVNDARRIGKYCGDSPPAPIVSERNELLIQFLSDLSLTADGFIGHYIFRPK
chain 2: AATSRPERVWPDGVIPFVIGGNFTGSQRAVFRQAMRHWEKHTCVTFLERTDEDSYIVFTYRPCGCCSYVGRRGGGPQAISIGKNCDKFGIVVHELGHVVGFWHEHTRPDRDRHVSIVRENIQPGQEYNFLKMEPQEVESLGETYDFDSIMHYARNTFSRGIFLDTIVPKYEVNGVKPPIGQRTRLSKGDIAQARKLYKCPACGETLQDSTGNFSSPEYPNGYSAHMHCVWRISVTPGEKIILNFTSLDLYRSRLCWYDYVEVRDGFWRKAPLRGRFCGSKLPEPIVSTDSRLWVEFRSSSNWVGKGFFAVYEAICGGDVKKDYGHIQSPNYPDDYRPSKVCIWRIQVSEGFHVGLTFQSFEIERHDSCAYDYLEVRDGHSESSTLIGRYCGYEKPDDIKSTSSRLWLKFVSDGSINKAGFAVNFFKEVDECSRPNRGGCEQRCLNTLGSYKCSCDPGYELAPDKRRCEAACGGFLTKLNGSITSPGWPKEYPPNKNCIWQLVAPTQYRISLQFDFFETEGNDVCKYDFVEVRSGLTADSKLHGKFCGSEKPEVITSQYNNMRVEFKSDNTVSKKGFKAHFFSEKRPALQPPRGRPHQLKFRVQKRNRTPQ

The variants in one assay derive from B1. The assay is described as follows: SPR. To be noted: with bone morphogenetic protein-1 [human]; 50 nM MBP-CUB1CUB2; immobilized BMP-1 (1302 RU); parent: 17; read off a plot.
For the variant chain 1 QSPERPVFTCGGILTGESGFIGSEGFPGVYPPNSKCTWKITVPEGKVVVLNFRFIDLESDNLCRYDFVDVYNGHANGQRIGRFCGTFRPGALVSSGNKMMVQMISDANTAGNGFMAMFSAAEPNERGDQYCGGLLDRPSGSFKTPNWPDADYPAGVTCVWHIVAPKNQLIELKFEKFDVERDNYCRYDYVAVFNGGEVNDARRIGKYCGDSPPAPIVSERNELLIQFLSDLSLTADGFIGHYIFRPK [chain 1 R150A], the response is 18 RU.

For the variant chain 1 QSPERPVFTCGGILTGESGFIGSEGFPGVYPPNSKCTWKITVPEGKVVVLNFRFIDLESDNLCRYDFVDVYNGHANGQRIGRFCGTARPGALVSSGNKMMVQMISDANTAGNGFMAMFSAAEPNERGDQYCGGLLDRPSGSFKTPNWPDRDYPAGVTCVWHIVAPKNQLIELKFEKFDVERDNYCRYDYVAVFNGGEVNDARRIGKYCGDSPPAPIVSERNELLIQFLSDLSLTADGFIGHYIFRPK [chain 1 F87A], the response was found to be 16 RU. In the case of chain 1 QSPERPVFTCGGILTGESGFIGSEGFPGVYPPNSKCTWKITVPEGAVVVLNFRFIDLESDNLCRYDFVDVYNGHANGQRIGRFCGTFRPGALVSSGNKMMVQMISDANTAGNGFMAMFSAAEPNERGDQYCGGLLDRPSGSFKTPNWPDRDYPAGVTCVWHIVAPKNQLIELKFEKFDVERDNYCRYDYVAVFNGGAVNDARRIGKYCGDSPPAPIVSEANELLIQFLSDLSLTADGFIGHYIFRPK [chain 1 K46A E197A R220A], the response worked out at 7.2 RU.

Staying with this assay, now noted: with bone morphogenetic protein-1 [human]; 50 nM MBP-CUB1CUB2; immobilized BMP-1 (1302 and 1492 RU); parent: 100; read off a plot.
As to chain 1 QSPERPVFTCGGILTGESGFIGSEGFPGVYPPNSKCTWKITVPEGAVVVLNFRFIDLESDNLCRYDFVDVYNGHANGQRIGRFCGTFRPGALVSSGNKMMVQMISDANTAGNGFMAMFSAAEPNERGDQYCGGLLDRPSGSFKTPNWPDRDYPAGVTCVWHIVAPKNQLIELKFEKFDVERDNYCRYDYVAVFNGGAVNDARRIGKYCGDSPPAPIVSEANELLIQFLSDLSLTADGFIGHYIFRPK [chain 1 K46A E197A R220A], the percent of parent (% binding / WT) worked out at 40.
